Experimental data taken from paper PMC5832301.

Target: UDP-glucose pyrophosphorylase from sugarcane (ScUGPase-1) (sugarcane (Saccharum spp. hybrids))
Assay: SEC-MALS; sample of the larger oligomeric form peak; Superdex 200 increase 5/150, room temperature, 2.0 mg/mL, 20 mM Tris/HCl pH 8.0, 20 mM NaCl

## UDP-glucose pyrophosphorylase from sugarcane (ScUGPase-1) (from UniProt A0A075E2Q1 1-476) (enzyme)
  stoichiometry N: 8
